Data from paper PMC10290117 (2023).
Numbered stars: 1 amine (or outer) side, 2 acyl side, 3 side chain; on linkers, the order of the positions; unused ones are H or OH. Square brackets hold non-standard residues; d marks the D form. Ends that are not written are not given here. OSE = (2S)-2-amino-3-sulfooxy-propanoic acid, sulfo-serine, O=C([C@H](COS(=O)(=O)O)N[*:1])[*:2]; Abu(4-PO3H2) = N[C@@H](CCP(=O)(O)O)C(=O)O; pS = N[C@@H](COP(=O)(O)O)C(=O)O

T1: HLA-B*0702, biotinylated recombinant HLA class I molecule of the Alpha assay (human, biotin)
T1 chain: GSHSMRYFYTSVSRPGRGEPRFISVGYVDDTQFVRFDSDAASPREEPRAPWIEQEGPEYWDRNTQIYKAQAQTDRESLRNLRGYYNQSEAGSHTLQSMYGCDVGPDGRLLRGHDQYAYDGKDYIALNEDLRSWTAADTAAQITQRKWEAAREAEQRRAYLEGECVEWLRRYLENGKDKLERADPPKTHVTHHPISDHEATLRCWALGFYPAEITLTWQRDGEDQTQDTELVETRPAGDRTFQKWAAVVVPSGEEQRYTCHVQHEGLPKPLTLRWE


Biological target: T1, HLA-B*0702, biotinylated recombinant …

Binder	Kd
EPR[OSE]PSHSM [OSE-MLL_(747–755) peptide EPR(OSE)PSHSM]	26.2 nM
EPR[pS]PSHSM [pMLL_(747–755) phosphopeptide EPR(pS)PSHSM]	56.7 nM
LPA[pS]PAHQL [pDOT1L_(998–1006) phosphopeptide LPA(pS)PAHQL]	309 nM
LPASPAHQL [DOT1L_(998–1006) peptide LPASPAHQL]	54.3 nM

Second part, the binder after the results:

Kd	Binder
27 nM	EPRSPSHSM [MLL_(747–755) peptide EPRSPSHSM]
33.9 nM	EPR[Abu(4-PO3H2)]PSHSM [E7P-MLL_(747–755) peptide EPR(E7P)PSHSM]
